{"source": "patent US20210230304A1", "target": "Chicken egg white-derived lysozyme (Sigma-Aldrich) (chicken) (UniProt P00698)", "sequence (P00698 19-147)": "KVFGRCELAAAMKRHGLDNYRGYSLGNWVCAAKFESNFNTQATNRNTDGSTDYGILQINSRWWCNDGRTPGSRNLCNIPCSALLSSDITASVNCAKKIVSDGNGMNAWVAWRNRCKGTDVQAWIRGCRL", "assay": "SPR, Biacore T200; antigen immobilised, antibody as analyte"}
{"substance": "mouse anti-lysozyme antibody of clone Hy-HEL5, wild-type", "values": [{"measurement": "Kd", "result": 0.177, "unit": "nM"}]}
